From patent WO2025083273A1 (dated 2025)

B1: VHg5/VLg1 (antibody, human IgG1, V domains shown)
VH: QVQLQQSGGGLVQAGGSLRLSCAASGFTFTSYAMSWVRQAPGKGLEWVATISDGDSYSYFPDSVKDRFIISRDNAKNSLFLQMNSLRAEDTAVYYCARDRIYGSVQYYAMDYWGRGTLVTVSS
VL: DVVMTQSPDSLAVSLGERATINCRASESVEFSGTSLMQWYQQKPGQPPKLLIYAASNVESGVPDRFSGSGSGTDFTLTISSLQAEDVVVYYCQQSRKLPYTFGGGTKVEIK
B2: VHg5/VLg6 (antibody, human IgG1, V domains shown)
VH: QVQLQQSGGGLVQAGGSLRLSCAASGFTFTSYAMSWVRQAPGKGLEWVATISDGDSYSYFPDSVKDRFIISRDNAKNSLFLQMNSLRAEDTAVYYCARDRIYGSVQYYAMDYWGRGTLVTVSS
VL: DVVMTQSPPSLPVTPGEPASISCRASESVEFSGTSLMQWYLQKPGQSPQVLIYAASNVESGVPDRFSGSGSGTDFTLKISRVEAEDVGVYYCQQSRKLPYTFGQGTRLEIK
B3: VHg5/VLg4 (antibody, human IgG1, V domains shown)
VH: QVQLQQSGGGLVQAGGSLRLSCAASGFTFTSYAMSWVRQAPGKGLEWVATISDGDSYSYFPDSVKDRFIISRDNAKNSLFLQMNSLRAEDTAVYYCARDRIYGSVQYYAMDYWGRGTLVTVSS
VL: DVVMTQSPDSLAVSLGERATISCRASESVEFSGTSLMQWYQQKPRQPLKLLIYAASNVESGVPDRFSGSGSGTDFTLTISSLQAEDVAVYYCQQSRKLPYTFGQGTRLEIK
B4: VHg10/VLg13 (antibody, human IgG1, V domains shown)
VH: EVQLVESGGGLVQPGGSLRLSCAASGFTFSSYAMSWVRQAPGKGLEWVSTISDGDSYSYFPDSVKDRFTISRDNSKNTLYLQMNSLRAEDTAVYYCARDRIYGSVQYYAMDYWGQGTLVTVSS
VL: DIQMTQSPSSLSASVGDRVTITCRASESVEFSGTSLMQWYQQKPGKAPKLLIYAASNVESGVPSRFSGSGSGTDFTFTISSLQPEDIATYYCQQSRKLPYTFGQGTKLEIK
B5: VHg9/VLg4 (antibody, human IgG1, V domains shown)
VH: EVQLVESGGGLVKPGGSLRLSCAASGFTFSSYAMSWVRQAPGKGLEWVSTISDGDSYSYFPDSVKDRFTISRDNAKNSLYLQMNSLRAEDTAVYYCARDRIYGSVQYYAMDYWGQGTLVTVSS
VL: DVVMTQSPDSLAVSLGERATISCRASESVEFSGTSLMQWYQQKPRQPLKLLIYAASNVESGVPDRFSGSGSGTDFTLTISSLQAEDVAVYYCQQSRKLPYTFGQGTRLEIK
B6: VHg10/mVL (antibody, human IgG1, V domains shown)
VH: EVQLVESGGGLVQPGGSLRLSCAASGFTFSSYAMSWVRQAPGKGLEWVSTISDGDSYSYFPDSVKDRFTISRDNSKNTLYLQMNSLRAEDTAVYYCARDRIYGSVQYYAMDYWGQGTLVTVSS
VL: DIVLTQSPASLAVSLGQRATISCRASESVEFSGTSLMQWYQQRPGLPPKLLIYAASNVESGVPARFSGSGSGTDFSLNIHPVEEDDIAMYFCQQSRKLPYTFGGGTKLEIN
B7: VHg1/VLg6 (antibody, human IgG1, V domains shown)
VH: QVQLVQSGGGLVQPGGSLRLSCAASGFTFSSYAMSWVRQAPGKGLEWVSTISDGDSYSYFPDSVKDRFTISRDNSKNTLYLQMNSLRAEDTSVYYCARDRIYGSVQYYAMDYWGQGTLVTVSS
VL: DVVMTQSPPSLPVTPGEPASISCRASESVEFSGTSLMQWYLQKPGQSPQVLIYAASNVESGVPDRFSGSGSGTDFTLKISRVEAEDVGVYYCQQSRKLPYTFGQGTRLEIK
B8: VHg6/VLg6 (antibody, human IgG1, V domains shown)
VH: QVQLQQSGGGLVQPGGSLRLSCAASGFTFSSYAMSWVRQAPGKGLEWVATISDGDSYSYFPDSVKDRFTISRDNARNSLYLQMNSLRAEDTAVYYCARDRIYGSVQYYAMDYWGRGTLVTVSS
VL: DVVMTQSPPSLPVTPGEPASISCRASESVEFSGTSLMQWYLQKPGQSPQVLIYAASNVESGVPDRFSGSGSGTDFTLKISRVEAEDVGVYYCQQSRKLPYTFGQGTRLEIK
B9: VHg3/mVL (antibody, human IgG1, V domains shown)
VH: EVQLVQSGGGLVKPGGSLRLSCAASGFKFSSYAMSWVRQAPGKGLEWLSTISDGDSYSYFPDSVKDRFIISRDNAKNSLYLQMNSLRVEDTGVYYCARDRIYGSVQYYAMDYWGQGTLVTVSS
VL: DIVLTQSPASLAVSLGQRATISCRASESVEFSGTSLMQWYQQRPGLPPKLLIYAASNVESGVPARFSGSGSGTDFSLNIHPVEEDDIAMYFCQQSRKLPYTFGGGTKLEIN
B10: VHg3/VLg2 (antibody, human IgG1, V domains shown)
VH: EVQLVQSGGGLVKPGGSLRLSCAASGFKFSSYAMSWVRQAPGKGLEWLSTISDGDSYSYFPDSVKDRFIISRDNAKNSLYLQMNSLRVEDTGVYYCARDRIYGSVQYYAMDYWGQGTLVTVSS
VL: DIQLTQSPSSLSASVGDRVTITCRASESVEFSGTSLMQWYQQKAGLAPKLLIYAASNVESGVPSRFSGSGSGTDFTLTISSLQPEDFGTYYCQQSRKLPYTFGQGTRLEIK
B11: VHg9/VLg12 (antibody, human IgG1, V domains shown)
VH: EVQLVESGGGLVKPGGSLRLSCAASGFTFSSYAMSWVRQAPGKGLEWVSTISDGDSYSYFPDSVKDRFTISRDNAKNSLYLQMNSLRAEDTAVYYCARDRIYGSVQYYAMDYWGQGTLVTVSS
VL: EIVLTQSPATLSLSPGERATLSCRASESVEFSGTSLMQWYQQKPGQAPRLLIYAASNVESGIPARFSGSGSGTDFTLTISSLEPEDFAVYYCQQSRKLPYTFGQGTKLEIK
B12: VHg2/VLg1 (antibody, human IgG1, V domains shown)
VH: QMQLVQSGGGLVKPGGSLRLSCAASGFTFSSYAMSWIRQAPGKGLEWVSTISDGDSYSYFPDSVKDRFTISRDNAKNSLYLQMNSLRAEDTAVYYCTRDRIYGSVQYYAMDYWGRGTLVTVSS
VL: DVVMTQSPDSLAVSLGERATINCRASESVEFSGTSLMQWYQQKPGQPPKLLIYAASNVESGVPDRFSGSGSGTDFTLTISSLQAEDVVVYYCQQSRKLPYTFGGGTKVEIK
B13: VHg6/VLg5 (antibody, human IgG1, V domains shown)
VH: QVQLQQSGGGLVQPGGSLRLSCAASGFTFSSYAMSWVRQAPGKGLEWVATISDGDSYSYFPDSVKDRFTISRDNARNSLYLQMNSLRAEDTAVYYCARDRIYGSVQYYAMDYWGRGTLVTVSS
VL: EIVLTQSPGTLSLSPGERGTLSCRASESVEFSGTSLMQWYQQKPGQAPRLLIYAASNVESGIPDRFSGSGSETDFTLTISRLEPEDLAVYYCQQSRKLPYTFGQGTRLEIK
B14: VHg1/VLg13 (antibody, human IgG1, V domains shown)
VH: QVQLVQSGGGLVQPGGSLRLSCAASGFTFSSYAMSWVRQAPGKGLEWVSTISDGDSYSYFPDSVKDRFTISRDNSKNTLYLQMNSLRAEDTSVYYCARDRIYGSVQYYAMDYWGQGTLVTVSS
VL: DIQMTQSPSSLSASVGDRVTITCRASESVEFSGTSLMQWYQQKPGKAPKLLIYAASNVESGVPSRFSGSGSGTDFTFTISSLQPEDIATYYCQQSRKLPYTFGQGTKLEIK
B15: VHg2/VLg6 (antibody, human IgG1, V domains shown)
VH: QMQLVQSGGGLVKPGGSLRLSCAASGFTFSSYAMSWIRQAPGKGLEWVSTISDGDSYSYFPDSVKDRFTISRDNAKNSLYLQMNSLRAEDTAVYYCTRDRIYGSVQYYAMDYWGRGTLVTVSS
VL: DVVMTQSPPSLPVTPGEPASISCRASESVEFSGTSLMQWYLQKPGQSPQVLIYAASNVESGVPDRFSGSGSGTDFTLKISRVEAEDVGVYYCQQSRKLPYTFGQGTRLEIK
B16: VHg1/VLg1 (antibody, human IgG1, V domains shown)
VH: QVQLVQSGGGLVQPGGSLRLSCAASGFTFSSYAMSWVRQAPGKGLEWVSTISDGDSYSYFPDSVKDRFTISRDNSKNTLYLQMNSLRAEDTSVYYCARDRIYGSVQYYAMDYWGQGTLVTVSS
VL: DVVMTQSPDSLAVSLGERATINCRASESVEFSGTSLMQWYQQKPGQPPKLLIYAASNVESGVPDRFSGSGSGTDFTLTISSLQAEDVVVYYCQQSRKLPYTFGGGTKVEIK
B17: VHg9/VLg2 (antibody, human IgG1, V domains shown)
VH: EVQLVESGGGLVKPGGSLRLSCAASGFTFSSYAMSWVRQAPGKGLEWVSTISDGDSYSYFPDSVKDRFTISRDNAKNSLYLQMNSLRAEDTAVYYCARDRIYGSVQYYAMDYWGQGTLVTVSS
VL: DIQLTQSPSSLSASVGDRVTITCRASESVEFSGTSLMQWYQQKAGLAPKLLIYAASNVESGVPSRFSGSGSGTDFTLTISSLQPEDFGTYYCQQSRKLPYTFGQGTRLEIK
B18: VHg9/VLg5 (antibody, human IgG1, V domains shown)
VH: EVQLVESGGGLVKPGGSLRLSCAASGFTFSSYAMSWVRQAPGKGLEWVSTISDGDSYSYFPDSVKDRFTISRDNAKNSLYLQMNSLRAEDTAVYYCARDRIYGSVQYYAMDYWGQGTLVTVSS
VL: EIVLTQSPGTLSLSPGERGTLSCRASESVEFSGTSLMQWYQQKPGQAPRLLIYAASNVESGIPDRFSGSGSETDFTLTISRLEPEDLAVYYCQQSRKLPYTFGQGTRLEIK
B19: VHg3/VLg6 (antibody, human IgG1, V domains shown)
VH: EVQLVQSGGGLVKPGGSLRLSCAASGFKFSSYAMSWVRQAPGKGLEWLSTISDGDSYSYFPDSVKDRFIISRDNAKNSLYLQMNSLRVEDTGVYYCARDRIYGSVQYYAMDYWGQGTLVTVSS
VL: DVVMTQSPPSLPVTPGEPASISCRASESVEFSGTSLMQWYLQKPGQSPQVLIYAASNVESGVPDRFSGSGSGTDFTLKISRVEAEDVGVYYCQQSRKLPYTFGQGTRLEIK
B20: VHg10/VLg2 (antibody, human IgG1, V domains shown)
VH: EVQLVESGGGLVQPGGSLRLSCAASGFTFSSYAMSWVRQAPGKGLEWVSTISDGDSYSYFPDSVKDRFTISRDNSKNTLYLQMNSLRAEDTAVYYCARDRIYGSVQYYAMDYWGQGTLVTVSS
VL: DIQLTQSPSSLSASVGDRVTITCRASESVEFSGTSLMQWYQQKAGLAPKLLIYAASNVESGVPSRFSGSGSGTDFTLTISSLQPEDFGTYYCQQSRKLPYTFGQGTRLEIK

What follows are molecules tested against T1, human DR3 (TNFRSF25) expressed on cells (human, UniProt Q93038 25-417) (assay: cell-based or functional assay).
T1 sequence: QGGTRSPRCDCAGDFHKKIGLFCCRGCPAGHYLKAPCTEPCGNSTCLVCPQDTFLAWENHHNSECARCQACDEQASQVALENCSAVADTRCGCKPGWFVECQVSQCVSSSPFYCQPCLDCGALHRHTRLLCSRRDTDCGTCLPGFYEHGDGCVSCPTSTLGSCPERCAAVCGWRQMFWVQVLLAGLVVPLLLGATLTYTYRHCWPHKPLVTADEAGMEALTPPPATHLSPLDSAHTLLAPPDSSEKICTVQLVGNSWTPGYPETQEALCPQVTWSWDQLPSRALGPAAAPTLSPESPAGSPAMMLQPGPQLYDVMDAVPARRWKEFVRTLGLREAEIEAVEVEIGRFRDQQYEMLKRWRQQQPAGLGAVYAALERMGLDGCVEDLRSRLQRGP

R347 IgG (antibody) was tested, and the Signal (FLU), isotype control was 385000 FLU.

Going from B1 to B2, the “Signal (FLU)” value falls from 410000 FLU to 387000 FLU.

Going from B3 to B4, the “Signal (FLU)” value rises from 1.44e+06 FLU to 3.27e+06 FLU.

Compared with B5, B6 is higher in “Signal (FLU)” value: 2.96e+06 FLU for the first, 3.2e+06 FLU for the second.

Compared with B7, B8 is higher in “Signal (FLU)” value: 1.5e+06 FLU for the first, 1.96e+06 FLU for the second.

Compared with B9, B10 is lower in “Signal (FLU)” value: 2.86e+06 FLU for the first, 2.23e+06 FLU for the second.

Going from B11 to B12, the “Signal (FLU)” value falls from 682000 FLU to 402000 FLU.

First: B13
Second: B14
The “Signal (FLU)” value of the first is higher: 2.85e+06 FLU for the first, 2.81e+06 FLU for the second.

Compared with B15, B16 is lower in “Signal (FLU)” value: 1.62e+06 FLU for the first, 797000 FLU for the second.

First: B17
Second: B18
The “Signal (FLU)” value of the first is lower: 2.88e+06 FLU for the first, 3.05e+06 FLU for the second.

First: B19
Second: B20
The “Signal (FLU)” value of the first is lower: 2.05e+06 FLU for the first, 2.84e+06 FLU for the second.
